According to US20250154287A1 (Pfizer, published 2025):
Where a chain is given by its changes, count along the chain named. Blank lines part the entries; values can stand above or below the binder they belong to.

Key:
[1] = biological target: T1, human membrane IgA (mIgA), endogenously expressed on primary B cells and DAKIKI cells (human, UniProt P01876 1-398); experiment: cell-based or functional assay
[2] = biological target: T1, human membrane IgA (mIgA), endogenously …; experiment: cell-based or functional assay; remark: listed apart in the source
[3] = biological target: T1, human membrane IgA (mIgA), endogenously …; experiment: cell-based or functional assay; remark: listed apart in the source
[4] = biological target: T1, human membrane IgA (mIgA), endogenously …; experiment: cell-based or functional assay; remark: listed apart in the source
[5] = biological target: T1, human membrane IgA (mIgA), endogenously …; experiment: cell-based or functional assay; remark: listed apart in the source
[6] = biological target: T2, biotinylated cyno MIGIS-α peptide (cynomolgus monkey); experiment: SPR (Biacore T200, 37 C), biotinylated peptide captured, OAA as analyte, 1:1 fit
T2 construct: domain: MIGIS-α

[7] = biological target: T3, biotinylated human MIGIS-α peptide (human, biotinylated); experiment: as above
T3 peptide: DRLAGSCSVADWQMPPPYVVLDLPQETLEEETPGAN

[8] = biological target: T2, biotinylated cyno MIGIS-α peptide; experiment: SPR, OAA format
[9] = biological target: T3, biotinylated human MIGIS-α peptide; experiment: SPR, OAA format
[10] = biological target: T4, human membrane IgA overexpressed on Ramos cells (human); experiment: flow cytometry, cell binding on IgA+ Ramos cells; fit table under the plot
T4 construct: its MIGIS-α segment is the short form; also called IgA^+ Ramos; human IgA^+ RAMOS cells
T4 sequence (heavy, as listed by the source): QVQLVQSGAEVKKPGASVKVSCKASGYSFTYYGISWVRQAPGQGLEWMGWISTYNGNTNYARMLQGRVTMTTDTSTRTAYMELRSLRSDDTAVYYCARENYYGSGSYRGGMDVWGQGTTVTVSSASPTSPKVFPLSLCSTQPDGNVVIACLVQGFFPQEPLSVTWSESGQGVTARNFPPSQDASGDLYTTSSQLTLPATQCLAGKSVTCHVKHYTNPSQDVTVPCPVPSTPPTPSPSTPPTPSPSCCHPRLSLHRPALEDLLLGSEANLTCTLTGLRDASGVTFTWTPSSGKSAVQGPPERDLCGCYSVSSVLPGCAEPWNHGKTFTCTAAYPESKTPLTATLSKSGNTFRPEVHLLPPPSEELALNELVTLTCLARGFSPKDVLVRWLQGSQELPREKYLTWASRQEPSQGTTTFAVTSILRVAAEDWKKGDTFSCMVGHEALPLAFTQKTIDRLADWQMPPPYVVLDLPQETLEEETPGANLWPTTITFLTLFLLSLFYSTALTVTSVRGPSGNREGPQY

[11] = biological target: T5, parental (IgA^-) Ramos cell line, which expresses only cell surface IgM (UniProt P01871 1-474); experiment: flow cytometry on parental Ramos cells
T5 construct: whole, on cells; Negative control cells without membrane IgA; also called mIgA negative Ramos cells; parental Ramos
T5 sequence (P01871 whole entry): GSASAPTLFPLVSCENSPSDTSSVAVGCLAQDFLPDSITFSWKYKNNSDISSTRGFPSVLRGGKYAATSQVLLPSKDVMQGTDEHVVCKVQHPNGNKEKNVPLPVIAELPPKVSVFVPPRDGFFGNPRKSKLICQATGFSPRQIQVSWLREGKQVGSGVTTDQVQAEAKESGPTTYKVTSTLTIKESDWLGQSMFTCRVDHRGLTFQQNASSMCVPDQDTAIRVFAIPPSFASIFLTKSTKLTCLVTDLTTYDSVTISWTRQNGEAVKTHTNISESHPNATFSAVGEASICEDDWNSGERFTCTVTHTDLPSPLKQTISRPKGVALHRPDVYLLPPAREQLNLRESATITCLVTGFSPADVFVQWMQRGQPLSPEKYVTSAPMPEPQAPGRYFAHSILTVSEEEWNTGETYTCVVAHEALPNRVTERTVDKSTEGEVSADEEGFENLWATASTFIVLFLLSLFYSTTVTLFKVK

[12] = biological target: T4, human membrane IgA overexpressed on …; experiment: flow cytometry, cell binding on IgA+ Ramos cells; fit table under the plot, unit from the y axis (gMFI minus secondary only)
[13] = biological target: T4, human membrane IgA overexpressed on …; experiment: flow cytometry on IgA+ Ramos cells
[14] = biological target: T4, human membrane IgA overexpressed on …; experiment: flow cytometry, cell binding on IgA+ Ramos cells; fit table under the plot (the text prints 2.9 nM)

T1 sequence (P01876 whole entry): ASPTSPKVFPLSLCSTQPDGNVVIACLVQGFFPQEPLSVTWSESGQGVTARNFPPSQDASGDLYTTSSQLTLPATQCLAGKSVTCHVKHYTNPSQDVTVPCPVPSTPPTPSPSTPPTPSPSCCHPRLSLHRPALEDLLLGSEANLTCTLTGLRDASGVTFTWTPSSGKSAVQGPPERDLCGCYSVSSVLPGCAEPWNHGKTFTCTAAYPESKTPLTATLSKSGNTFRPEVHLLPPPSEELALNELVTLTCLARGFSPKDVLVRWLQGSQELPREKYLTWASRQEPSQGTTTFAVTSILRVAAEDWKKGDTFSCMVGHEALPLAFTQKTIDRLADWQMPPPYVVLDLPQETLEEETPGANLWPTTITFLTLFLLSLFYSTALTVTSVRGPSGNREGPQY

B2: GBT-IgA-1164, anti-MIGIS-α/CD3 bispecific antibody (bispecific antibody)
heavy 1: not shown
light 1: not shown
heavy 2: EVQLVESGGGLVQPGGSLRLSCAASGFTFSDYYMTWVRQAPGKGLEWVAFIRNQARGYTSDHNPSVKGRFTISRDNAKNSLYLQMNSLRAEDTAVYYCARDRPSYYVLDYWGQGTTVTVSSASTKGPSVFPLAPSSKSTSGGTAALGCLVKDYFPEPVTVSWNSGALTSGVHTFPAVLQSSGLYSLSSVVTVPSSSLGTQTYICNVNHKPSNTKVDKKVEPKSCEKTHTCPPCPAPEAAGAPSVFLFPPKPKDTLMISRTPEVTCVVVDVSHEDPEVKFNWYVDGVEVHNAKTKPREEQYNSTYRVVSVLTVLHQDWLNGKEYKCKVSNKALPAPIEKTISKAKGQPREPQVYTLPPSREEMTKNQVSLTCEVKGFYPSDIAVEWESNGQPENNYKTTPPVLDSDGSFFLYSKLTVDKSRWQQGNVFSCSVMHEALHNHYTQKSLSLSPGK
light 2: DIQMTQSPSSLSASVGDRVTITCTSSQSLFNVRSQKNYLAWYQQKPGKAPKLLIYWASTRESGVPSRFSGSGSGTDFTLTISSLQPEDFATYYCKQSYDLFTFGGGTKVEIKRTVAAPSVFIFPPSDEQLKSGTASVVCLLNNFYPREAKVQWKVDNALQSGNSQESVTEQDSKDSTYSLSSTLTLSKADYEKHKVYACEVTHQGLSSPVTKSFNRGEC
EC50 (nM), IgA^+ memory B cell kill [4]: 0.318 nM
EC50 (nM), IgA producing B cell kill [5]: 0.916 nM

B3: GBT-IgA-0070 (H05 in one arm antibody format) (antibody)
heavy: not shown
chain: EPKSSDKTHTCPPCPAPEAAGAPSVFLFPPKPKDTLMISRTPEVTCVVVDVSHEDPEVKFNWYVDGVEVHNAKTKPREEQYNSTYRVVSVLTVLHQDWLNGKEYKCKVSNKALPAPIEKTISKAKGQPREPQVYTLPPCREEMTKNQVSLSCAVKGFYPSDIAVEWESNGQPENNYKTTPPVLDSDGSFFLVSKLTVDKSRWQQGNVFSCSVMHEALHNRYTQKSLSLSPGK
light: not shown
notes: also called H05 OAA
Kd [6]: 56 nM
koff [6]: 0.0154 s⁻¹
kon [6]: 275000 M⁻¹ s⁻¹
Kd [7]: 210 nM
koff [7]: 0.0222 s⁻¹
kon [7]: 105000 M⁻¹ s⁻¹

B4: GBT-IgA-1090 (antibody)
heavy: not shown
chain: B3 chain
light: not shown
notes: One-armed antibody
Kd [6]: 1.05 nM
koff [6]: 0.0013 s⁻¹
kon [6]: 1.27e+06 M⁻¹ s⁻¹
Kd [7]: 0.724 nM
koff [7]: 0.0015 s⁻¹
kon [7]: 2.06e+06 M⁻¹ s⁻¹

B6: GBT-IgA-1091 (antibody)
heavy: not shown
chain: B3 chain
light: not shown
notes: One-armed antibody; also called one armed antibody version of GBT-IgA-1602; OAA of GBT-IgA-1179
Kd [6]: 2.46 nM
koff [6]: 0.0023 s⁻¹
kon [6]: 953000 M⁻¹ s⁻¹
Kd [7]: 2.13 nM
koff [7]: 0.0028 s⁻¹
kon [7]: 1.32e+06 M⁻¹ s⁻¹

B9: GBT-IgA-0032 (T25) (antibody, V domains shown)
VH: QVQLVESGGGVVQPGRSLRLSCAASGFTFSSYGMHWVRQAPGKGLEWVAVISYDGSNKYYADSVKGRFTISRDNSKNTLYLQMNSLRAEDTAVYYCAKLYGGNPKDTIYHWGRGTLVTVSS
VL: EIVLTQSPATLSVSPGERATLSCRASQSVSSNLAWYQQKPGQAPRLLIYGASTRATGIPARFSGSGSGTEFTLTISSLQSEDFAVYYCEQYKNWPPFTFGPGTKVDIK
EC50 [13]: 2.9 nM
fold MFI compared to H05 [13]: ~4 fold
binding result [11]: no binding
EC50 [14]: 2.99 nM
Top [12]: 33700 gMFI

B10: GBT-IgA-0836 (T18-NKp46 bsAb) (bispecific antibody)
heavy 1: not shown
light 1: not shown
heavy 2: not shown
light 2: DIQMTQTTSSLSASLGDRVTISCRASQDISNYLNWYQQKPDGTVKLLIYYTSRLHSGVPSRFSGSGSGTDYSLTINNLEQEDIATYFCQQGNTRPWTFGGGTKLEIKRTVAAPSVFIFPPSDEQLKSGTASVVCLLNNFYPREAKVQWKVDNALQSGNSQESVTEQDSKDSTYSLSSTLTLSKADYEKHKVYACEVTHQGLSSPVTKSFNRGEC
EC50 (nM), reduction in secreted IgA in human PBMC supernatants [1]: 980 nM
reduction of secreted IgA in PBMC supernatants at 300 nM (IgA ELISA) [2]: 15%
EC50 (nM), cytotoxicity against IgA^+ CD20^+ B cells by flow cytometry [3]: 0.457 nM

B11: GBT-IgA-0035 (ET17) (antibody, V domains shown)
VH: EVQLLESGGGLVQPGGSLRLSCAASGFTFSRYAMSWVRQVPGKGLEWVSAITGSGSGTYYADPVKGRFTISRDNSKNTLYLQMNSLRAEDTAVYHCAKERSGSSSDYWGQGTLVTVSS
VL: EIVLTQSPATLSLSPGERATLSCRASQTVGSHLAWYQQKPGQAPRLLIYEASNRATGIPPRFSGSGSGTDFTLTISSLEPEDFAVYYCQQRNNWPITFGQGTRLESKR
notes: Heavy constant region of the tested format is not tied to this name; also called E17
EC50 [13]: 11.9 nM
mean fluorescence intensity at the top saturating concentration tested [13]: 23600 MFI
binding result [11]: no binding

B13: GBT-IgA-0034 (ET10) (antibody, V domains shown)
VH: B11 VH with R31S, A50S, S56G
VL: B11 VL with G30R
notes: Heavy constant region of the tested format is not tied to this name; also called E10
EC50 [13]: 27 nM
mean fluorescence intensity at the top saturating concentration tested [13]: 22600 MFI
binding result [11]: no binding

Now from value to binder, other results behind:

EC50 (nM), reduction in secreted IgA in human PBMC supernatants [1]: 21.2 nM
reduction of secreted IgA in PBMC supernatants at 300 nM (IgA ELISA) [2]: 52%
B1: GBT-IgA-0661 (T18-CD3 bispecific EFN EE/RR huIgG1) (bispecific antibody)
heavy 1: not shown
light 1: not shown
heavy 2: B2 heavy 2
light 2: B2 light 2
EC50 (nM), cytotoxicity against IgA^+ CD20^+ B cells by flow cytometry [3]: 2.68 nM

Kd [6]: 3.4 nM
koff [6]: 0.0018 s⁻¹
kon [6]: 548000 M⁻¹ s⁻¹
Kd [7]: 3.47 nM
koff [7]: 0.0028 s⁻¹
kon [7]: 818000 M⁻¹ s⁻¹
B5: GBT-IgA-1572 (antibody)
heavy: not shown
chain: B3 chain
light: not shown
notes: One-armed antibody

fold affinity difference against GBT-IgA-1091 [8]: ~3 fold
fold affinity gain over T18 [8]: ~14 fold
fold affinity difference against GBT-IgA-1091 [9]: ~3 fold
fold affinity gain over T18 [9]: ~16 fold
Kd [6]: 0.795 nM
koff [6]: 0.0017 s⁻¹
kon [6]: 2.22e+06 M⁻¹ s⁻¹
Kd [7]: 0.665 nM
koff [7]: 0.0015 s⁻¹
kon [7]: 2.29e+06 M⁻¹ s⁻¹
B7: GBT-IgA-0752 (GBT-IgA-0862 in one armed format) (antibody)
heavy: not shown
chain: B3 chain
light: not shown
notes: also called one armed format of GBT-IgA-0862 and of GBT-IgA-1164

EC50 [10]: 91.4 nM
binding result [11]: no binding
Top [12]: 8440 gMFI
B8: GBT-IgA-0033 (H05) (antibody, V domains shown)
VH: B9 VH with K105E, T107A, Y109D, H110Y
VL: not shown
notes: Parental clone from naive library; huIgG1; also called HOS

EC50 [13]: 64.5 nM
mean fluorescence intensity at the top saturating concentration tested [13]: 23100 MFI
binding result [11]: no binding
B12: GBT-IgA-0020 (15E7) (antibody, V domains shown)
VH: B11 VH with R31S
VL: B11 VL with G30S, H32Y

EC50 [13]: 10.8 nM
mean fluorescence intensity at the top saturating concentration tested [13]: 26100 MFI
binding result [11]: no binding
B14: GBT-IgA-0036 (ET18) (antibody, V domains shown)
VH: B11 VH
VL: B11 VL with G30S
notes: Heavy constant region of the tested format is not tied to this name; also called E18
